Key:
denosumab (XGEVA) = test: cell-based or functional assay
adalimumab (Humira) = test: cell-based or functional assay

pCART144 (IdeZ with N terminal methionine and histidine tag) (enzyme)
IgG2 (denosumab) cleavage, SDS-PAGE titration: enzyme concentration giving a dominating F(ab')2 band (denosumab (XGEVA)): 3.3 µg/mL | IgG2 (denosumab) cleavage, SDS-PAGE titration: enzyme concentration giving a single intense scIgG band (denosumab (XGEVA)): 0.12 µg/mL | IgG1 (adalimumab) cleavage, SDS-PAGE titration: enzyme concentration of equal cleavage (adalimumab (Humira)): 4.6 ng/mL
